Measured values from article PMC3281904, “Novel Covalently Linked Insulin Dimer Engineered to Investigate the Function of Insulin Dimerization” (PLoS ONE, 2012).
Marks after values point to notes of the source that are not given here.

What was measured:
[1] = hexameric insulin, previously determined, ref 65 (HI), 66 (bovine), 67 (porcine), cited from earlier work
Text: Table 2 The experimental parameters determined from the fit in Figure 2 and results previously determined for hexameric insulin of human and porcine origin. | column: Standard Sedimentation Coefficient s20,w, [S]; Standard Diffusion Coefficient D20,w, (×10−7 [cm^2/s]); Molar mass [kg/mole]; Rh [nm]

[2] = biological target: B25C insulin precursor (human) (UniProt P01308); experiment: LC/MS; LC/MS of the fermentations; mass of a disulfide-linked dimer

stoichiometry N [2]	Substance	Standard Sedimentation Coefficient s20,w ([1]; HI probably affected by non-ideality) [S]	Molar mass [1] [kg/mol]	Rh [1] [nm]	Standard Diffusion Coefficient D20,w [1]
–	Bovine insulin: hexameric bovine insulin, literature values	3.12	34.4	2.63	8.35 ^* ×10−7 cm^2/s
2	B25C insulin precursor (from UniProt P01308 1-29)	–	–	–	–
